Assay results as given in US20070053894A1.

Legend:
[1] = molecular target: Soluble human recombinant p97 (melanotransferrin) (human) (UniProt P08582); assay: cell-based or functional assay
[2] = molecular target: endogenous membrane-bound p97 of HMEC-1 and SK-MEL28 cells (human) (UniProt P08582); assay: cell-based or functional assay
[3] = molecular target: Soluble human recombinant p97 (melanotransferrin) (human) (UniProt P08582); assay: SPR (BIAcore), p97 immobilised on CM5 chip, mAb injected
[4] = molecular target: Soluble human recombinant p97 (melanotransferrin) (human) (UniProt P08582); assay: SPR (BIAcore), p97 immobilised on CM5 chip, mAb injected at 0.05 µg/µl

Chain of Soluble human recombinant p97 (melanotransferrin) (human) (P08582 20-711 T431K): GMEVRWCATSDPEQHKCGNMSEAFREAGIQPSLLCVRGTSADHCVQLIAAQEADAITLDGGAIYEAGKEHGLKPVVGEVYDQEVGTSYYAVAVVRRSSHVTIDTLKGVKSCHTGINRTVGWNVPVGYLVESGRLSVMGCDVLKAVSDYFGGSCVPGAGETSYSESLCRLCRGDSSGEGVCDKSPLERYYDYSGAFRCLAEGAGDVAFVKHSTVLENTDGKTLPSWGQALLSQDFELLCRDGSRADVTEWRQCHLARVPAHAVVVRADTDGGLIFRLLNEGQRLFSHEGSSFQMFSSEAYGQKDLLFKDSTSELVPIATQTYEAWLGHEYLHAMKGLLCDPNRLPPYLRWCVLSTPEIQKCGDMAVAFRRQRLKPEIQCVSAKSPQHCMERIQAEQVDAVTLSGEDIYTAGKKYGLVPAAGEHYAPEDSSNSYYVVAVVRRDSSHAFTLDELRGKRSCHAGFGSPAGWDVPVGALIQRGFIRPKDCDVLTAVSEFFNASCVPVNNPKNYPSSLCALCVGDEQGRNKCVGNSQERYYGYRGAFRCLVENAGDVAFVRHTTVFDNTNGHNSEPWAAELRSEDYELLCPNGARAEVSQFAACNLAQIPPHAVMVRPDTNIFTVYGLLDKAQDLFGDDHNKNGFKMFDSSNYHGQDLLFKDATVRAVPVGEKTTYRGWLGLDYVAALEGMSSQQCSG
Chain of endogenous membrane-bound p97 of HMEC-1 and SK-MEL28 cells (human) (P08582 20-709): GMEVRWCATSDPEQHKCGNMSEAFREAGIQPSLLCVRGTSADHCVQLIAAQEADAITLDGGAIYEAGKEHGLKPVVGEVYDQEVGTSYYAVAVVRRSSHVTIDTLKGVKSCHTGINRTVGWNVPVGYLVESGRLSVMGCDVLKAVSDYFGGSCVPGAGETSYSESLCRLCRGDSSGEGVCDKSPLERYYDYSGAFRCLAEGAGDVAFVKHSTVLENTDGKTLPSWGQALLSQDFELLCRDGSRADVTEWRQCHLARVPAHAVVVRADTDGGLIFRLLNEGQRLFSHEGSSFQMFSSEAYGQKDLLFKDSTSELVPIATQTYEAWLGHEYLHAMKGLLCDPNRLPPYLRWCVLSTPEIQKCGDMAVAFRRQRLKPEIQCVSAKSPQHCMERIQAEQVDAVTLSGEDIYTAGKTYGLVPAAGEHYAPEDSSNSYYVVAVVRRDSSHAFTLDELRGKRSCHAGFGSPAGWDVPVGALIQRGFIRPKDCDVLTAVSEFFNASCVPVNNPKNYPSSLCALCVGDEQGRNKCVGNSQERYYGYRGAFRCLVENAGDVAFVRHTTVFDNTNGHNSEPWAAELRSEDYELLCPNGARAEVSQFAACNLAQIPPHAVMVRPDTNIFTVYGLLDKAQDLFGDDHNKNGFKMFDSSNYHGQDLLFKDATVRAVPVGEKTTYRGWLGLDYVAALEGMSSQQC

inhibition of the effect of soluble p97 on plasminogen activation by tPA [1]: 80% | inhibition of the pro-uPA activation induced by p97 (plasminolytic activity) [1]: 50% | inhibition of HMEC-1 cell migration by 50 nM mAb L235 (Boyden chamber) [2]: 54% | inhibition of SK-MEL28 cell migration by 50 nM mAb L235 (Boyden chamber) [2]: 48% | inhibition of plasminolytic activity of HMEC-1 cells by 250 nM mAb L235 [2]: > 50% | Ka [3]: 9e+08 M⁻¹ | Kd [3]: 1.2 nM | koff [3]: 5.3e-05 s⁻¹ | kon [3]: 44000 M⁻¹ s⁻¹ | ΔRU [4]: 1060 RU
Substance: monoclonal antibody L235 directed against p97
